Test results: the supplement of paper PMC10724198
± gives the standard deviation of the averaged measurements.

Experiments:
Saccharomyces cerevisiae [1] = test: protein stability index of tFT-peptide fusion (C-terminal peptide) (PSI (0-1 scale)); higher = more stable (slower turnover); details: genetic background: wild type; temperature: 30 C
Saccharomyces cerevisiae [2] = test: as above
Protocol: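 MPS profiling in S. cerevisiae of the tFT-X12 degron library: putative degron peptides plus stable controls, 12 aa, fused to the C-terminus of a sfGFP-mCherry timer. Cells are FACS-sorted into 8 mCherry/sfGFP bins and deep-sequenced. PSI runs from 0 (unstable) to 1 (stable). Backgrounds are wild type, das1Δ and doa10Δ at 30 °C, and wild type, das1Δ, cdc34-1 and cdc53-1 at 37 °C; 2-3 technical replicates each.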

[3] = genetic background: cdc34-1, temperature: 37 C
[4] = genetic background: cdc53-1, temperature: 37 C
[5] = genetic background: das1 deletion, temperature: 30 C
[6] = genetic background: das1 deletion, temperature: 37 C
[7] = genetic background: doa10 deletion, temperature: 30 C
[8] = genetic background: wild type, temperature: 30 C
[9] = genetic background: wild type, temperature: 37 C
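Note: PSI is a weighted mean of sequencing reads over stability bins, variants kept only with over 10 reads, mCherry proximal and sfGFP distal, peptide attached via GGGS linker.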

FPLPPPGSPPPL showed a protein stability index (Saccharomyces cerevisiae [1]) of 0.0293 ± 0.02, a protein stability index (Saccharomyces cerevisiae [2]; [3]) of 0.68 ± 0.035 and a protein stability index (Saccharomyces cerevisiae [2]; [4]) of 0.7381 ± 0.0033. For the same sequence, the protein stability index (Saccharomyces cerevisiae [2]; [5]) was 0.6712 ± 0.0062, the protein stability index (Saccharomyces cerevisiae [2]; [6]) was 0.735 ± 0.0085 and the protein stability index (Saccharomyces cerevisiae [2]; [7]) was 0.682 ± 0.0071. The protein stability index (Saccharomyces cerevisiae [2]; [8]) was 0.677 ± 0.011 and the protein stability index (Saccharomyces cerevisiae [2]; [9]) was 0.707 ± 0.014.

For FRFFYLPVSVVA, the protein stability index (Saccharomyces cerevisiae [1]) was 0.223 ± 0.027, the protein stability index (Saccharomyces cerevisiae [2]; [3]) was 0.0275 ± 0.013 and the protein stability index (Saccharomyces cerevisiae [2]; [4]) was 0.0356 ± 0.0058. The protein stability index (Saccharomyces cerevisiae [2]; [5]) was 0.146 ± 0.036, the protein stability index (Saccharomyces cerevisiae [2]; [6]) was 0.1275 ± 0.00029 and the protein stability index (Saccharomyces cerevisiae [2]; [7]) was 0.105 ± 0.02. It also gave a protein stability index (Saccharomyces cerevisiae [2]; [8]) of 0.142 ± 0.021 and a protein stability index (Saccharomyces cerevisiae [2]; [9]) of 0.0865 ± 0.013.

FRHKLSLGLVIV gave a protein stability index (Saccharomyces cerevisiae [1]) of 0.507 ± 0.011, a protein stability index (Saccharomyces cerevisiae [2]; [3]) of 0.54 ± 0.037 and a protein stability index (Saccharomyces cerevisiae [2]; [4]) of 0.555 ± 0.073. The protein stability index (Saccharomyces cerevisiae [2]; [5]) was 0.396 ± 0.029, the protein stability index (Saccharomyces cerevisiae [2]; [6]) was 0.56 ± 0.0072 and the protein stability index (Saccharomyces cerevisiae [2]; [7]) was 0.347 ± 0.012. For the same sequence, the protein stability index (Saccharomyces cerevisiae [2]; [8]) was 0.377 ± 0.028 and the protein stability index (Saccharomyces cerevisiae [2]; [9]) was 0.534 ± 0.014.

For FRYLRPAFLLLH, the protein stability index (Saccharomyces cerevisiae [1]) was 0.0906 ± 0.031, the protein stability index (Saccharomyces cerevisiae [2]; [3]) was 0.162 ± 0.071 and the protein stability index (Saccharomyces cerevisiae [2]; [4]) was 0.255 ± 0.029. For the same sequence, the protein stability index (Saccharomyces cerevisiae [2]; [5]) was 0.355 ± 0.027, the protein stability index (Saccharomyces cerevisiae [2]; [6]) was 0.442 ± 0.0055 and the protein stability index (Saccharomyces cerevisiae [2]; [7]) was 0.0693 ± 0.00084. It also gave a protein stability index (Saccharomyces cerevisiae [2]; [8]) of 0.0405 ± 0.019 and a protein stability index (Saccharomyces cerevisiae [2]; [9]) of 0.0854 ± 0.02.

FSALAPTPLLPL showed a protein stability index (Saccharomyces cerevisiae [1]) of 0.706 ± 0.042, a protein stability index (Saccharomyces cerevisiae [2]; [3]) of 0.703 ± 0.055 and a protein stability index (Saccharomyces cerevisiae [2]; [4]) of 0.7533 ± 0.0046. It also gave a protein stability index (Saccharomyces cerevisiae [2]; [5]) of 0.672 ± 0.029, a protein stability index (Saccharomyces cerevisiae [2]; [6]) of 0.739 ± 0.016 and a protein stability index (Saccharomyces cerevisiae [2]; [7]) of 0.662 ± 0.029. The protein stability index (Saccharomyces cerevisiae [2]; [8]) was 0.671 ± 0.016 and the protein stability index (Saccharomyces cerevisiae [2]; [9]) was 0.7063 ± 0.0068.

FSFCFCFPLSSL was tested, and the protein stability index (Saccharomyces cerevisiae [1]) was 0.301 ± 0.0084, the protein stability index (Saccharomyces cerevisiae [2]; [3]) was 0.5603 ± 0.0013 and the protein stability index (Saccharomyces cerevisiae [2]; [4]) was 0.683 ± 0.053. It also gave a protein stability index (Saccharomyces cerevisiae [2]; [5]) of 0.528 ± 0.018, a protein stability index (Saccharomyces cerevisiae [2]; [6]) of 0.6285 ± 0.0038 and a protein stability index (Saccharomyces cerevisiae [2]; [7]) of 0.209 ± 0.011. The protein stability index (Saccharomyces cerevisiae [2]; [8]) was 0.248 ± 0.013 and the protein stability index (Saccharomyces cerevisiae [2]; [9]) was 0.407 ± 0.015.

FSPSPVFVTCRV was tested, and the protein stability index (Saccharomyces cerevisiae [1]) was 0.356 ± 0.01, the protein stability index (Saccharomyces cerevisiae [2]; [3]) was 0.247 ± 0.027 and the protein stability index (Saccharomyces cerevisiae [2]; [4]) was 0.255 ± 0.013. It also gave a protein stability index (Saccharomyces cerevisiae [2]; [5]) of 0.208 ± 0.047, a protein stability index (Saccharomyces cerevisiae [2]; [6]) of 0.343 ± 0.0046 and a protein stability index (Saccharomyces cerevisiae [2]; [7]) of 0.182 ± 0.0066. The protein stability index (Saccharomyces cerevisiae [2]; [8]) was 0.218 ± 0.031 and the protein stability index (Saccharomyces cerevisiae [2]; [9]) was 0.296 ± 0.011.

For FTRLDYKRIKIV, the protein stability index (Saccharomyces cerevisiae [1]) was 0.102 ± 0.024, the protein stability index (Saccharomyces cerevisiae [2]; [3]) was 0.184 ± 0.18 and the protein stability index (Saccharomyces cerevisiae [2]; [4]) was 0.625 ± 0.15. For the same sequence, the protein stability index (Saccharomyces cerevisiae [2]; [5]) was 0.62 ± 0.017, the protein stability index (Saccharomyces cerevisiae [2]; [6]) was 0.768 ± 0.068 and the protein stability index (Saccharomyces cerevisiae [2]; [7]) was 0.0655 ± 0.014. It also gave a protein stability index (Saccharomyces cerevisiae [2]; [8]) of 0.0685 ± 0.03 and a protein stability index (Saccharomyces cerevisiae [2]; [9]) of 0.0698 ± 0.0013.

FVEFCFWCFWVV showed a protein stability index (Saccharomyces cerevisiae [1]) of 0.426 ± 0.005, a protein stability index (Saccharomyces cerevisiae [2]; [3]) of 0.481 ± 0.008 and a protein stability index (Saccharomyces cerevisiae [2]; [4]) of 0.575 ± 0.032. It also gave a protein stability index (Saccharomyces cerevisiae [2]; [5]) of 0.407 ± 0.012, a protein stability index (Saccharomyces cerevisiae [2]; [6]) of 0.578 ± 0.026 and a protein stability index (Saccharomyces cerevisiae [2]; [7]) of 0.351 ± 0.022. The protein stability index (Saccharomyces cerevisiae [2]; [8]) was 0.361 ± 0.026 and the protein stability index (Saccharomyces cerevisiae [2]; [9]) was 0.499 ± 0.0043.
